Results published in paper PMC10328401 (Science Advances, 2023).

Biological target: T1, RsgI2-PD C-terminal fragment after autocleavage at Asn97-Pro98 (Clostridium thermocellum DSM 1313, UniProt A3DC27 98-259)
T1 sequence (looked up): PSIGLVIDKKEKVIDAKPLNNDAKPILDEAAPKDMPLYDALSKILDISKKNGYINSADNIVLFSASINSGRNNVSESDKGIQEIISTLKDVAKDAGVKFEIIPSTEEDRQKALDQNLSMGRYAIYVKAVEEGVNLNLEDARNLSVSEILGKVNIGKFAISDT
Experiment: crystal structure

binding result: binds
Binder: SQEYAYIDVDIN (peptide, UniProt A3DC27 86-97, looked up) [RsgI2-PD N-terminal fragment after autocleavage at Asn97-Pro98 (β1 strand chain, twelve residues)]
